Publication PMC6989304

Biological target: Pinhead-HA (secreted, in conditioned medium of HEK293T cells) (zebrafish)
Assay: reducing and non-reducing SDS-PAGE with immunoblot

- stoichiometry N: 2
Substance: Pinhead-HA (secreted, in conditioned medium of HEK293T cells) (ligand)
